For the assay, the target named is T1, fibrinogen (Homo sapiens, UniProt P02675+P02679).
T1 construct: then loaded with heparinized plasma (40 ml); from tissue; host or cells: heparinized plasma
Nature of the assay: Specifity of the coupled Sepharose by SDS gel electrophoresis. It is filed as binding. Particulars: statement in the description. As to the method:
The pentapeptide Gly-Pro-Arg-Pro-Lys was synthetized as trifluoracetate and coupled to cyanobromide-active Sepharose CL-4B. The specifity of the coupled Sepharose was tested by means of SDS gel electrophoresis.

T1 sequence (P02671 20-629 partner limits assumed): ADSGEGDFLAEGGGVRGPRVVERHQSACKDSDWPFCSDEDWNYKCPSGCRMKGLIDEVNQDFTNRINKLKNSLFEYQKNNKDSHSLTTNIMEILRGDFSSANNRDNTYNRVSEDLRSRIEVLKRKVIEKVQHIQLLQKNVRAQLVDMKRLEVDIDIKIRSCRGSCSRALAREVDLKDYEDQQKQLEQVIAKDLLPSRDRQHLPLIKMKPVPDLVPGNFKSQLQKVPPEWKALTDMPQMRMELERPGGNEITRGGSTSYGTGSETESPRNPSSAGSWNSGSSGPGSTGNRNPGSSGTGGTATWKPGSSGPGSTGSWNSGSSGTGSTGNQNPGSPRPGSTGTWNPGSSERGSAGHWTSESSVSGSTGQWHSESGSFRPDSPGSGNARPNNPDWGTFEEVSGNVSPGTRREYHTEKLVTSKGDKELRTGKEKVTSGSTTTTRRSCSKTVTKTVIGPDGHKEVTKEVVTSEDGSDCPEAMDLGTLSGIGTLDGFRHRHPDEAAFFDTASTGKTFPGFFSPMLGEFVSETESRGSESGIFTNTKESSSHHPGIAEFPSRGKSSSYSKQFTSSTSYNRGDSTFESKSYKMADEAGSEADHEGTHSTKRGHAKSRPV
T1 sequence (P02675 31-491): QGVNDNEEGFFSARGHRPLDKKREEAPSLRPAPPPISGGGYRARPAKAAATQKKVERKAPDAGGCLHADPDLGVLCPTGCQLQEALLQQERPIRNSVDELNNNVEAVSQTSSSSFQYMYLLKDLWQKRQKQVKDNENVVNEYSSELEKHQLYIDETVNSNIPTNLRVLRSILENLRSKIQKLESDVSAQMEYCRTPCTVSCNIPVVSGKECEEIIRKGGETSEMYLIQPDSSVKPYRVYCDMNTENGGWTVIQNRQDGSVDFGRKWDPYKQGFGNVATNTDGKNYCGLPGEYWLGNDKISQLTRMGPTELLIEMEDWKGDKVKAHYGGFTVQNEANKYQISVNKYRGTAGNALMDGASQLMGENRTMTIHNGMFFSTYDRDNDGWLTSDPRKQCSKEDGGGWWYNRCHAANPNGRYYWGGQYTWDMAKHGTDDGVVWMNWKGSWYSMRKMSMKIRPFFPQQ
T1 sequence (P02679 27-453): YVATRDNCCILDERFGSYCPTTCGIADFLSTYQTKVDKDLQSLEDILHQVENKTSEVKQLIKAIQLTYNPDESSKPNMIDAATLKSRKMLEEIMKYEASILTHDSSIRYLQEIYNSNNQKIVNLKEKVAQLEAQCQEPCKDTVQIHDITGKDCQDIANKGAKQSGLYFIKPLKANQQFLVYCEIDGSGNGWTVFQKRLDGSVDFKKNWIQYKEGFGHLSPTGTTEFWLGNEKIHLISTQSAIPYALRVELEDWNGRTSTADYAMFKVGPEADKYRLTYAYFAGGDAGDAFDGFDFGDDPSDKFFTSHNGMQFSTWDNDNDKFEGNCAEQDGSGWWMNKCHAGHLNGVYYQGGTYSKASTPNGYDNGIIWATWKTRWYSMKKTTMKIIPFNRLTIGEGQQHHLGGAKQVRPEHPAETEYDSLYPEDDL

With “Gly-Pro-Arg-Pro-Lys (GPRPK; printed: Gly-Pro-Arg-Pro-Lys) [pentapeptide ligand for fibrinogen and/or fibrin]”, the “specifity for fibrinogen and/or fibrin” value is listed as “very high specifity”.

Source of the values: US20070253967A1, “Agent for the treatment and/or prophylaxis of microcirculatory disorders” (priority 1997, published 2007).
